Assay results taken from patent US8063008B2, “Enzymatic production of peracids using perhydrolytic enzymes” (E. I. du Pont de Nemours and Company, priority 2005, dated 2011).

B1: Proteinase K, T. album, recombinantly expressed in P. pastoris: Proteinase K, T. album, recombinantly expressed in P. pastoris, Roche 3115879 (protein, UniProt P06873 106-384, looked up)
Proteinase K: AAQTNAPWGLARISSTSPGTSTYYYDESAGQGSCVYVIDTGIEASHPEFEGRAQMVKTYYYSSRDGNGHGTHCAGTVGSRTYGVAKKTQLFGVKVLDDNGSGQYSTIIAGMDFVASDKNNRNCPKGVVASLSLGGGYSSSVNSAAARLQSSGVMVAVAAGNNNADARNYSPASEPSVCTVGASDRYDRRSSFSNYGSVLDIFGPGTSILSTWIGGSTRSISGTSMATPHVAGLAAYLMTLGKTTAASACRYIADTANKGDLSNIPFGTVNLLAYNNYQA
modifications: recombinant, Pichia pastoris
B2: Proteinase K, T. album: Proteinase K, T. album, Novagen 70663; a fungal subtilisin from Tritirachium album (protein, UniProt P06873 106-384, looked up)
Proteinase K: B1 Proteinase K
B3: Papain: Papain, papaya latex, Sigma P3125 (protein, UniProt P00784 134-345, looked up)
Papain: IPEYVDWRQKGAVTPVKNQGSCGSCWAFSAVVTIEGIIKIRTGNLNEYSEQELLDCDRRSYGCNGGYPWSALQLVAQYGIHYRNTYPYEGVQRYCRSREKGPYAAKTDGVRQVQPYNEGALLYSIANQPVSVVLEAAGKDFQLYRGGIFVGPCGNKVDHAVAAVGYGPNYILIKNSWGTGWGENGYIRIKRGTGNSYGVCGLYTSSFYPVKN
B4: Alcalase ®: Novozymes; subtilisin Carlsberg or subtilisin A from Bacillus licheniformis (protein, UniProt P00780 106-379, looked up)
Subtilisin Carlsberg: AQTVPYGIPLIKADKVQAQGFKGANVKVAVLDTGIQASHPDLNVVGGASFVAGEAYNTDGNGHGTHVAGTVAALDNTTGVLGVAPSVSLYAVKVLNSSGSGSYSGIVSGIEWATTNGMDVINMSLGGASGSTAMKQAVDNAYAKGVVVVAAAGNSGSSGNTNTIGYPAKYDSVIAVGAVDSNSNRASFSSVGAELEVMAPGAGVYSTYPTNTYATLNGTSMASPHVAGAAALILSKHPNLSASQVRNRLSSTATYLGSSFYYGKGLINVEAAAQ

Legend:
Format in all cases: biochemical
[1] = Protease-catalyzed perhydrolysis of acetamide at pH 6.5 (Example 9); details: pH 6.5, 500 mM H2O2, 1 mg protease
Procedure: (§1) Into a 4-mL glass vial with stir bar was added 1 mg protease (Table 6) in 0.050 mL of 50 mM potassium phosphate buffer (pH 6.5), 0.900 mL of an aqueous mixture containing either a) acetamide (278 mM) in 50 mM potassium phosphate buffer (pH 6.5) or b) diacetamide (278 mM) in 50 mM potassium phosphate buffer (pH 6.5), and 0.052 mL 30% hydrogen peroxide (500 mM final concentration). […] A portion of the filtered reaction samples was diluted 1:10 with dd water and analyzed for hydrogen peroxide, and the remaining portion of the sample was directly analyzed for peracid using the HPLC assay method (Table 10).

[2] = Protease-catalyzed perhydrolysis of acetamide at pH 4.0 (Example 6); details: pH 4.0, 500 mM H2O2, 1 mg protease
Procedure: as §1, with “sodium acetate/acetic acid” for “potassium phosphate”, “4.0),” for “6.5),”, “4.0)” for “6.5)”, “7).” for “10).”

[3] = Protease-catalyzed perhydrolysis of diacetamide at pH 6.5 (Example 9); details: pH 6.5, 500 mM H2O2, 1 mg protease
Procedure: as §1

[4] = Enzymatic perhydrolysis of triacetin using a combination of lipase and proteases (Proteinase K, Pronase) at pH 4.0 and 6.5 (Example 10); details: H2O2 500 mM, 1 mg lipase, 0.3 mg Proteinase K, 1.2 mg Pronase
Procedure: Reaction mixtures were prepared containing 1 mg lipase (ICR 101, ICR-110, or ICR-117, BioCatalytics, Pasadena, Calif.), 0.3 mg Proteinase K (T. album), and 1.2 mg of Pronase in 1.0 mL of 50 mM buffer (either sodium acetate/acetic acid buffer at pH 4.0, or potassium phosphate buffer at pH 6.5), additionally containing triacetin (250 mM) and hydrogen peroxide (500 mM). […] A portion of the filtered reaction samples was diluted 1:10 with dd water and analyzed for hydrogen peroxide, and the remaining portion of the sample was directly analyzed for peracid using the HPLC assay method (Table 11). Reactions were also run with lipase alone or protease(s) alone for comparison of peracetic acid concentrations produced without the combination of lipase and protease(s).

[5] = Protease-catalyzed perhydrolysis of triacetin at pH 4.0 (Example 7); details: pH 4.0, 500 mM H2O2, 1 mg protease
Procedure: as §1, with “sodium acetate/acetic acid” for “potassium phosphate”, “4.0),” for “6.5),”, “triacetin” for “either a) acetamide”, “4.0),” for “6.5) or b) diacetamide (278 mM) in 50 mM potassium phosphate buffer (pH 6.5),”, “8).” for “10).”

[6] = Protease-catalyzed perhydrolysis of diacetamide at pH 4.0 (Example 6); details: pH 4.0, 500 mM H2O2, 1 mg protease
Procedure: as §1, with “sodium acetate/acetic acid” for “potassium phosphate”, “4.0),” for “6.5),”, “4.0)” for “6.5)”, “7).” for “10).”

[7] = Protease-catalyzed perhydrolysis of triacetin at pH 6.5 (Example 8); details: pH 6.5, 500 mM H2O2, 1 mg protease
Procedure: The analytical procedure described by U. Karst et al. (Anal. Chem., 69 (17):3623-3627 (1997)) was employed, as described herein, for analysis of product mixtures containing peracid and hydrogen peroxide. Briefly, the concentration of peracetic acid (PAA) in analyzed samples ranged from 0.025 mM-10 mM, and the concentration of H2O2 ranged from 0.075 mM-3 mM. Reaction mixtures containing peracid and/or hydrogen peroxide were, if necessary prior to analysis, diluted to produce a concentration of peracid or peroxide in these ranges. […] At the end of 30 minutes, 0.100 mL of 10 mM N,N-diethyl-m-toluamide (DEET, HPLC external standard) was added and the resulting solution analyzed by HPLC: Supelco Discovery C8 10-cm column with pre-column, 10-μL injection, UV detection at 225 nm, solvent A: acetonitrile, solvent B: deionized water, 1 mL/min gradient as follows: […]
as §1, with “sodium” for “potassium”, “triacetin” for “either a) acetamide”, “mM” for “mM potassium phosphate buffer (pH 6.5) or b) diacetamide (278 mM) in 50 mM potassium”, “9).” for “10).”

[8] = Enzymatic perhydrolysis of triacetin using a combination of lipase and Alcalase at pH 4.0 and 6.5 (Example 22); details: H2O2 500 mM, 1 mg lipase, 20 μL Alcalase
Procedure: Reaction mixtures were prepared containing 1 mg lipase (A “Amano” 12 (Amano), Validase AN (Valley Research), or ICR-110 (BioCatalytics)), and 20 μL Alcalase® (Novozymes) in 1.0 mL of 50 mM buffer (either sodium acetate/acetic acid buffer at pH 4.0, or potassium phosphate buffer at pH 6.5), additionally containing triacetin (250 mM) and hydrogen peroxide (500 mM). […] A portion of the filtered reaction samples was diluted 1:10 with dd water and analyzed for hydrogen peroxide, and the remaining portion of the sample was directly analyzed for peracid using the HPLC assay method (Table 27). Reactions were also run with lipase alone or Alcalase® alone for comparison of peracetic acid concentrations produced without the combination of lipase and Alcalase®.

[9] = Enzymatic perhydrolysis of a mixture of diacetin (250 mM), triacetin (88 mM) and monoacetin (192 mM) using lipase and Alcalase at pH 4.0 and 6.5 (Example 23); details: 1 mg lipase, 20 μL Alcalase
Procedure: Reaction mixtures were prepared containing 1 mg lipase (A “Amano” 12 (Amano), Validase AN (Valley Research), or ICR-110 (BioCatalytics)), and 20 μL Alcalase® (Novozymes) in 1.0 mL of 50 mM buffer (either sodium acetate/acetic acid buffer at pH 4.0, or potassium phosphate buffer at pH 6.5), additionally containing a mixture of diacetin (250 mM), triacetin (88 mM) and monoacetin (192 mM) and hydrogen peroxide (500 mM). […] A portion of the filtered reaction samples was diluted 1:10 with dd water and analyzed for hydrogen peroxide, and the remaining portion of the sample was directly analyzed for peracid using the HPLC assay method (Table 28). Reactions were also run with lipase alone or Alcalase® alone for comparison of peracetic acid concentrations produced without the combination of lipase and Alcalase®.

Molecule | acetamide (250 mM) peracetic acid (ppm), 5 min [1] [ppm] | acetamide (250 mM) peracetic acid (ppm), 30 min [1] [ppm] | acetamide (250 mM) peracetic acid (ppm), 5 min [2] [ppm] | acetamide (250 mM) peracetic acid (ppm), 30 min [2] [ppm] | diacetamide (250 mM) peracetic acid (ppm), 5 min [3] [ppm] | diacetamide (250 mM) peracetic acid (ppm), 30 min [3] [ppm] | other results
B1 | 150 | 194 | 26 | 43 | 66 | 99 | 
B2 | 270 | 214 | 34 | 49 | 104 | 100 | peracetic acid (ppm), 5 min ([4]; pH 4.0, triacetin 250 mM): 24 ppm; peracetic acid (ppm), 30 min ([4]; pH 4.0, triacetin 250 mM): 7 ppm; peracetic acid (ppm), 5 min ([4]; pH 6.5, triacetin 250 mM): 323 ppm; peracetic acid (ppm), 30 min ([4]; pH 6.5, triacetin 250 mM): 669 ppm
B3 | 199 | 157 | 81 | 105 | 342 | 187 | triacetin (250 mM) peracetic acid (ppm), 5 min ([5]; 5 min): 85 ppm; triacetin (250 mM) peracetic acid (ppm), 30 min ([5]; 30 min): 48 ppm; diacetamide (250 mM) peracetic acid (ppm), 5 min ([6]; 5 min): 135 ppm; diacetamide (250 mM) peracetic acid (ppm), 30 min ([6]; 30 min): 172 ppm; triacetin (250 mM) peracetic acid (ppm), 5 min ([7]; 5 min): 203 ppm; triacetin (250 mM) peracetic acid (ppm), 30 min ([7]; 30 min): 142 ppm
B4 |  |  |  |  |  |  | peracetic acid (ppm), 5 min ([8]; pH 4.0, triacetin 250 mM): 0 ppm; peracetic acid (ppm), 30 min ([8]; pH 4.0, triacetin 250 mM): 0 ppm; peracetic acid (ppm), 5 min ([8]; pH 6.5, triacetin 250 mM): 180 ppm; peracetic acid (ppm), 30 min ([8]; pH 6.5, triacetin 250 mM): 330 ppm; peracetic acid (ppm), 5 min ([9]; pH 4.0, H2O2 500 mM): 0 ppm; peracetic acid (ppm), 30 min ([9]; pH 4.0, H2O2 500 mM): 20 ppm; peracetic acid (ppm), 5 min ([9]; pH 6.5, H2O2 500 mM): 110 ppm; peracetic acid (ppm), 30 min ([9]; pH 6.5, H2O2 500 mM): 210 ppm
